US20090214555A1
Where no end group is shown, it is not given here.

Target: rabbit polyclonal anti-Syn2vE1a antibodies
Assay: epitope peptide competition: antisera pre-absorbed with 3 mg/ml synthetic epitope peptide, then Western blot on Syn2vE1a lysate

percent of anti-Syn2vE1a signals blocked: > 98%
B1: synthetic epitope peptide (C)…-amide (peptide)
peptide: CGIRRAPLYKRHPTGTA-NH2
